Measurements as given in patent publication US20240327502A1 (Merck Sharp & Dohme, published 2024).

Columns and labels:
[1] = biological target: T1, Unprocessed hMPV PreF trimer (human metapneumovirus, strain B2); assay: BLI, mAb on anti-human Fc sensor
T1 construct: also called Unprocessed hMPV WT PreF trimer; unprocessed hMPV PreF trimeric antigen

[2] = biological target: T2, hMPV PostF trimer (human metapneumovirus, strain B2); assay: BLI, mAb on anti-human Fc sensor
T2 construct: also called MPV PostF (dPFv1)

[3] = biological target: T3, Processed stabilized hMPV PreF trimer (115BV) (human metapneumovirus, strain B2); assay: BLI, mAb on anti-human Fc sensor
T3 construct: also called Processed hMPV PreF trimer; processed PreF

[4] = biological target: T3, Processed stabilized hMPV PreF trimer …; assay: BLI, ratio to unprocessed PreF trimer

B1: M3A01 (antibody, V domains shown)
VH: EVQLVESGGGLVKPGGSLRLSCSVSAFSISGYNMHWVRQAPGKGLEWVSSITGGSNYINYADSVKGRFTISRDNAQNSLYLQMKSLRAEDTAVYYCARETQPSPGSFDSWGQGTLVTVSS
VL: QSVLTQPPSVSGAPGQRVTISCTGSSSNIGAGYDVNWYQQLPGTAPKLLIYGNYNRPSGVPDRFSASKSGTSASLAITGLQAEDEADYWCQSYDTSLSGWIFGGGTKLTVL
notes: IgG
- Octet binding response [1]: 0.251 nm
- Octet binding response [2]: -0.062 nm
- Octet binding response [3]: 0.261 nm
- processed/unprocessed PreF trimer binding ratio [4]: 1.04

B2: M3E04 (antibody, V domains shown)
VH: EVQLVESGGGLVKPGGSLRLSCAGSGFTFSSYSMNWVRQAPGKGLEWVSSISASSSYIYYADSLKGRFTISRDNAKNSLYLQMNSLRAEDTAVYYCARANYGSGNYYNPKWFDPWGQGTLVTVSS
VL: QSVLTQPPSVSGAPGQRVTISCTGSSSNIGAGYDVHWYQQFPGTAPKVLIYGNNNRPSGVPDRFSGSKSGTSASLAISGLQAEDEADYYCQSYDSSLSGSIFGGGTKLTVL
notes: IgG
- Octet binding response [1]: 0.3 nm
- Octet binding response [2]: 0.0262 nm
- Octet binding response [3]: 0.0401 nm
- processed/unprocessed PreF trimer binding ratio [4]: 0.13

B3: M2A11 (antibody, V domains shown)
VH: QVQLQESGPGLVKPSETLSLTCTVSGGSITSHYWSWVRQPPGKGLEWIAYIYYSGSTDYNPSLKSRVTISLDTSKNQVSLRLNSVTTADTAVYFCARCMPLYHVMHVWGHGTTVTVSS
VL: QSVLTQPPSVSGAPGQRVTISCTGSSSDIGAGSDVHWYQQLPGTAPKLLIYGNTNRPSGVPDRFSGSKSGTSASLAITGLQAEDEADYYCQSYDSGLSGYVFGGGTKLTVL
notes: IgG
- Octet binding response [1]: 0.285 nm
- Octet binding response [2]: 0.293 nm
- Octet binding response [3]: 0.0658 nm
- processed/unprocessed PreF trimer binding ratio [4]: 0.23

B4: M1A04 (antibody, V domains shown)
VH: EVQLVESGGGLVRPGGSLRLSCAASGFNVRNYYMSWVRQAPGKGLEWISVIYGGGTTFYAGSVKGRFTISRDDSKSTLFLQMNSLRADDTAVYYCARDPGTVMSTENLQGMDVWGQGTTVTVSS
VL: DIQMTQSPSSLSASVGDRVTITCRASQTIRSYLNWYQQKPGKAPNLLIYAATSLQSGVPSRFSGSGSGTDFTLTISSLQPEDSATYYCQQSFSTLYSFGQGTRLEIK
notes: IgG
- Octet binding response [1]: 0.453 nm
- Octet binding response [2]: 0.618 nm
- Octet binding response [3]: 0.557 nm
- processed/unprocessed PreF trimer binding ratio [4]: 1.23

B5: M3D10 (antibody, V domains shown)
VH: QVQLQESGPGLVKPSETLSLTCTVSGGSVSTYYWTWIRQPPGKGLDWIGYIYHNGNINYNPSLKSRVTMSVDTSKNQFSLKLTSVTAADTALYYCATVSFIGYSLYYFDRWGQGTLVTVSS
VL: DIQMTQSPSSLSASVGDRVTITCRASQNIASFLNWYQQRPGKAPDLLIYAASTLQTGVPSRFSGSGSGTDFTLAISSLQPEDFATYYCQQSYNTPFTFGQGTKLEIK
notes: IgG
- Octet binding response [1]: 0.38 nm
- Octet binding response [2]: 0.473 nm
- Octet binding response [3]: 0.397 nm
- processed/unprocessed PreF trimer binding ratio [4]: 1.04

B6: M4A06 (antibody, V domains shown)
VH: EVQLVESGGGLVRPGGSLRLSCAASGFSLTTDEVNWVRQAPGKGPEWVSFISASGHTIYYADSVKGRFTISRDNGRNSVYLQMNSLRAEDTAVYYCARVGRLGGVGYYYALGPFDLWGQGTMVTVSS
VL: EIVLTQSPGTLSLSPGERATLSCRASQSITSNYLAWYQQKPGQAPRLLIYGASSRATGIPDRFSGSGSGTDFTLTISRLQPEDFAVYYCQQYGSSLYIFGQGTKLEIK
notes: IgG
- Octet binding response [1]: 0.36 nm
- Octet binding response [2]: 0.449 nm
- Octet binding response [3]: 0.281 nm
- processed/unprocessed PreF trimer binding ratio [4]: 0.78

B7: M3A08 (antibody, V domains shown)
VH: EVQLVESGGGLVKPGGSLRLSCAASGFSITSYGMHWVRQAPGKGLEWVSSISSSSSYISYRDSVKGRFTVSRDNAGNSLSLQMNSLRGEDTAVYHCARDAGLVPPWMDSWGQGTLVIVSS
VL: QSVLTQPPSVSGAAGQRVTISCTGSSSNLGTGYDVHWYRQQPGTAPKLIMFGNTNRPSGVPGRFSGSRSGTSASLAITGLQADDEADYYCQSYDSSLGGLVFGGGTKLTVL
notes: IgG
- Octet binding response [1]: 0.422 nm
- Octet binding response [2]: -0.0217 nm
- Octet binding response [3]: 0.249 nm
- processed/unprocessed PreF trimer binding ratio [4]: 0.59

B8: M2B01 (antibody, V domains shown)
VH: QVQLVESGGGVVQPGKSLRLSCAASGFTFSSHAMDWVRQVPGKGLEWVAVISYDGSNRYYADSVKGRFTISRDTSKNTLYLQMNSLRPEDTAVYYCARDFQPSPMVYGVGYFDYWGQGTLVTVSP
VL: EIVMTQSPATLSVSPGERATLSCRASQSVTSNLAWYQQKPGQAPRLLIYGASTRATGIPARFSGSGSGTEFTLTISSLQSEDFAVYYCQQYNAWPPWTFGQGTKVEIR
notes: IgG
- Octet binding response [1]: 0.315 nm
- Octet binding response [2]: 0.465 nm
- Octet binding response [3]: 0.0607 nm
- processed/unprocessed PreF trimer binding ratio [4]: 0.19

B9: M2C07 (antibody, V domains shown)
VH: QVQLQESGPGLVAPSQTLSLICDVSGDSVTSGAYSWSWIRQHPVKGLEWIAYINYSGRTNYNPSLQSRLVISVDRSKNQFSLRLSSVTAADTAVYYCARANVVGYSGFYFDYWGQGTLVAVSS
VL: DIQMTQSPSSLSASVGDTVTITCRASQSVGAYLNWYQQKPGKAPKLLVFAGSSLQTGVPSRFSGRGSRTEFTLTITNLQREDFASYYCQQSLGDFLTFGGGTKVEIK
notes: IgG
- Octet binding response [1]: 0.418 nm
- Octet binding response [2]: 0.454 nm
- Octet binding response [3]: 0.44 nm
- processed/unprocessed PreF trimer binding ratio [4]: 1.05

B10: M2D03 (antibody, V domains shown)
VH: QVQLQESGPGLVAPSQTLSLICDVSGDSVTSGAHSWSWIRQHPVKGLEWIAYINYSGRTNYNPSLQSRLVISVDRSKNQFSLRLSSVTAADTAVYYCARANVVGYSGYYFDYWGQGTLVAVSS
VL: DIQMTQSPSSLSASVGDRVTITCRASQSVGAYLNWYQQKPGKAPKLLIFAGSSLQTGVPSRFSGRGSRTEFTLTISNLQREDFATYYCQQSLGDFLTFGGGTKVEIK
notes: IgG
- Octet binding response [1]: 0.425 nm
- Octet binding response [2]: 0.503 nm
- Octet binding response [3]: 0.466 nm
- processed/unprocessed PreF trimer binding ratio [4]: 1.1

B11: M3C04 (antibody, V domains shown)
VH: EVQLVQSGAEVKKPGESLKISCKGSGYNFANYWIGWVRQMPGKGLEWMGIIYPGDSDTRRNPSFQGHVTMSVDQSISTAYLQWSSLKASDTAMYYCARPLAVSAFDIWGQGTMVTVSS
VL: DIQMTQSPSSLSASVGDKLTITCRASQSISNYLNWYQQKSGKAPKLLIYAASSLQSGVPSRFSGSGSGTDFTLTISSLQPEDFATYYCQQSASTPHTFGQGTKVEIV
notes: IgG
- Octet binding response [1]: 0.379 nm
- Octet binding response [2]: 0.409 nm
- Octet binding response [3]: 0.31 nm
- processed/unprocessed PreF trimer binding ratio [4]: 0.82

B12: M2D11 (antibody, V domains shown)
VH: QVQLQQWGAGLLKPSETLSLTCAVSGGSFSGYHWTWIRQPPGKGLEWIGEVDHGGNTNYNPSLMSRVTISVDMSTKQFSLRLTSMTAADTAVYYCARGFGVVINNWFDPWGQGTLVTVTS
VL: DIQMTQSPSSLSASVGDRVTITCRASQTISSYLNWYQQKPGKAPNLLIYTVSTLQSGVPSRFSGSGSGTDFTLTISSLQPEDFATYYCQQSYGAPYTFGQGTKLEIK
notes: IgG
- Octet binding response [1]: 0.41 nm
- Octet binding response [2]: 0.43 nm
- Octet binding response [3]: 0.436 nm
- processed/unprocessed PreF trimer binding ratio [4]: 1.06

B13: M3D05 (antibody, V domains shown)
VH: QVQLVQSGAEVKQPGASVKVSCKASGYTFSGYYIQWVRQAPGQGLEWMGWINPNSGGTNFAQKFQGRVTMTSDTSTSAAYMELSSLRSDDTAVYYCVRGQQLTRQYYFGMDVWGQGTTVTVSS
VL: QSVLTQPPSVSGAPGQRVIISCSGSSSNIRSNAVNWYQQLPGKAPKLLIFYDGLLPSGVSDRFSGSKTGNSASLAISGLQSEDEADYYCAAWDDSLNGPVFGGGTKLTVL
notes: IgG
- Octet binding response [1]: 0.338 nm
- Octet binding response [2]: 0.539 nm
- Octet binding response [3]: 0.0831 nm
- processed/unprocessed PreF trimer binding ratio [4]: 0.25

B14: M2B06 (antibody, V domains shown)
VH: QVQLQESGPRLVKPSGTLSLTCAVSGASITSSHWWTWVRQPPGKGLEWIGRIFHSGSTNYNPSLKSRVTISLDKSRNQFSLTLTSVTAADTAVYYCARDDQIVVMPAGFDRWGQGALVIVSS
VL: DIQMTQSPSSLSASVGDRVTITCRASQTISSYLNWYQQTPGKAPNLLIYGASRLQGGVPSRFSGSGSGTDFTLTISSLQPEDFAIYFCQQSKSIPYTFGQGTRLEIK
notes: IgG
- Octet binding response [1]: 0.389 nm
- Octet binding response [2]: 0.436 nm
- Octet binding response [3]: 0.401 nm
- processed/unprocessed PreF trimer binding ratio [4]: 1.03

B15: M3E10 (antibody, V domains shown)
VH: QVQLVQSGAEVKKPGSSVKVSCKASGGTINSYAISWVRQAPGQGPEWLGGIIPIFGTANYAQNFPGRVTITADASTSTVYMELSSLRSDDTAIYYCARGTRYIAVMVPSMQDYYFFGMDVWGQGTTVTVSS
VL: DIQLTQSPSFLSASVGDRVTITCRASQGISSYLAWYQQKPGQAPKLLIYAASTLQSGVPSRFSGSGSGTEFTLTISSLQPEDFATYYCQQVTSYPFSITFGQGTRLEIK
notes: IgG
- Octet binding response [1]: 0.351 nm
- Octet binding response [2]: 0.0082 nm
- Octet binding response [3]: 0.17 nm
- processed/unprocessed PreF trimer binding ratio [4]: 0.48

B16: M7D5 (antibody, V domains shown)
VH: QVQLVQSGAEVKKPGSSVKVSCKASGGTLSNYAISWVRQAPGQGLEWMGGIIPIFGTAMYAHNFQDRVTFTADESTNTVYMAVSRLTSDDTAVYYCAQDRTVTKYAHGLDVWGQGTTVTVSS
VL: DIQMTQSPSSLSASVGDRITITCPASQSLLTYLNWYQQKPGKAPKLLIYSASELPSGVPSRFSGSGSGTEFTLTVTGLQPDDFATYYCQQSHTTPLTFGGGTKVEIKR
notes: IgG
- Octet binding response [1]: 0.296 nm
- Octet binding response [2]: 0.0826 nm
- Octet binding response [3]: 0.347 nm
- processed/unprocessed PreF trimer binding ratio [4]: 1.17

B17: M3C11 (antibody, V domains shown)
VH: QVQLQESGPGLVKPSETLSLTCTVSGGSLSSYCWSWIRQPPGKGLEWIGYIYYSGGTNYNPSLKSRVTISVDTSKNQFSLNLSSVTAADTAVYYCARGEASGYLNYYFDYWGQGTLVAVSS
VL: SYELTQPPSVSVSPGQTASITCSGHKLGDKYAYWYQQKPGQSPVLVIYQDNKRPSGIPERFSGSNSGNTATLTISGTQAMDEADYYCQAWDSGTVFGGGTKLTVL
notes: IgG
- Octet binding response [1]: 0.317 nm
- Octet binding response [2]: 0.433 nm
- Octet binding response [3]: 0.0794 nm
- processed/unprocessed PreF trimer binding ratio [4]: 0.25
